Two molecules from patent publication US20140024806A1 can be followed below.

Square brackets hold non-standard residues; d marks the D form. Ends that are not written are not given here. Hyp = O=C(O)[C@@H]1C[C@@H](O)CN1

Experiment [1] deals with growth hormone receptor (GHR) on NIH 3T3-L1 cells (Mus musculus (Mouse)) (UniProt P16882). The experiment in a line: radioreceptor competition assay, [125I]-hGH on GHR-expressing NIH 3T3-L1 cell monolayers.
Experiment [2] addresses anti-hGH-(SO)10 antibodies (1:10,000 serum dilution). In words: competition ELISA, hGH-(SO)10-coated plates, serum 1:10,000, 100 ug/ml (SO)10 as competitive inhibitor. (In general: ELISA stands for enzyme-linked immunosorbent assay.)

Chain of UniProt P16882 (P16882 25-650 limits assumed, form in doubt): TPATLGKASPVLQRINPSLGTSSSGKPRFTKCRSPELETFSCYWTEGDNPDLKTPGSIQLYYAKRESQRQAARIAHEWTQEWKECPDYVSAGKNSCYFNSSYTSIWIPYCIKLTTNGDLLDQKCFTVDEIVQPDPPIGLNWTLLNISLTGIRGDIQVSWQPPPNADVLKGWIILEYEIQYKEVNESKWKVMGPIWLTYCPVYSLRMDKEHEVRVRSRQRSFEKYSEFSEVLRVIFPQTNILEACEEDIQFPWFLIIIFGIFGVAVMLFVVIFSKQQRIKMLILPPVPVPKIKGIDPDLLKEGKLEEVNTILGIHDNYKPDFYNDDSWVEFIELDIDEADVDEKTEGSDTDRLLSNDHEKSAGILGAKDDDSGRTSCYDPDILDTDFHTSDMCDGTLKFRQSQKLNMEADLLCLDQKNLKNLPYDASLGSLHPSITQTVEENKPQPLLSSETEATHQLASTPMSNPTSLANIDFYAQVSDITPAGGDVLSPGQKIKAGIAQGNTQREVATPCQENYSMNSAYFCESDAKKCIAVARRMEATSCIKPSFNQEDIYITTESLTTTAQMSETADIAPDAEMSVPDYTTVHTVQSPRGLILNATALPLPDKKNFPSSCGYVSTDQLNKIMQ

In the case of “hGH-(SO)10-EGFP fusion glycoprotein (human growth hormone, (Ser-Hyp)10, enhanced green fluorescent protein) (ligand)”, in experiment [1], the concentration for a half-maximal effect (EC50) (in general, the concentration giving half of the maximal effect) amounted to 0.01 µM.

B1: purified (SO)10 glycomodule (peptide)
peptide: S[Hyp]S[Hyp]S[Hyp]S[Hyp]S[Hyp]S[Hyp]S[Hyp]S[Hyp]S[Hyp]S[Hyp]
modifications: also: O-glycosylated, sites not given here
With B1, the percent inhibition in experiment [2] was determined as 5%.
